# Measurements published in publication PMC10770331, “The virulence regulator VirB from Shigella flexneri uses a CTP-dependent switch mechanism to activate gene expression” (Nature Communications, 2024).
# Changes are numbered by the printed parent chain. In names and notes the source's numbering stands.
# T1: VirB (Shigella flexneri) (UniProt P0A247)
# T1 sequence: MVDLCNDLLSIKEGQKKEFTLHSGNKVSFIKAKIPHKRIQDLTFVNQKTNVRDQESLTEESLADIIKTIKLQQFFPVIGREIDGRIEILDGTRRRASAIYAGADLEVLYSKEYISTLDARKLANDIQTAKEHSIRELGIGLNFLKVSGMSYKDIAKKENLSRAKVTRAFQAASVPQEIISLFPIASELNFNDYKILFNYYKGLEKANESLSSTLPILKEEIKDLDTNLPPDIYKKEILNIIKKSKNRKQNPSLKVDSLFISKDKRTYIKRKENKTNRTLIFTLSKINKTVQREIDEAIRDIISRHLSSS
# T2: VirB (Shigella flexneri, UniProt P0A247 1-309)
# T2 sequence: T1 sequence
# B1: open virS oligonucleotide (23 bp) (dsDNA)
# DNA 1: GCTCGTTTCATCATGAAATCCCA
# DNA 2: TGGGATTTCATGATGAAACGAGC
# B2: VirB from Shigella flexneri (wild type) (natural protein)
# chain: T1 sequence
# notes: VirB of S. flexneri, UniProt P0A247; Native C5 was used for BMOE cross-linking; also called WT; wild-type VirB; source: E. coli Rosetta(DE3)pLysS, purified (IMAC, Ulp1 cleavage of the His6-SUMO tag, second IMAC, SEC); not shown: His6, N-terminal, cleaved; SUMO, N-terminal, cleaved
# B3: VirB-C5S/Q15C (natural protein)
# chain: T1 sequence with C5S, Q15C
# notes: VirB of S. flexneri, UniProt P0A247, lacking the native cysteine at position 5 and carrying an engineered cysteine at position 15; source: E. coli Rosetta(DE3)pLysS, purified (IMAC, Ulp1 cleavage of the His6-SUMO tag, second IMAC, SEC); not shown: His6, N-terminal, cleaved; SUMO, N-terminal, cleaved
# How the values were obtained:
# VirB [1] = target: T3, VirB (Shigella flexneri, UniProt P0A247); test: isothermal titration calorimetry (MST KD […]); format: binding
# T3 construct: purified recombinant wild-type VirB, His6-SUMO tag removed; encoded on virulence plasmid pINV
# VirB [2] = target: T3, VirB; test: microscale thermophoresis; supported by HDX-MS, crosslinking and weak CTPase activity; format: binding
# VirB [3] = target: T3, VirB; test: isothermal titration calorimetry; format: binding
# VirB (Shigella flexneri) = target: T1, VirB (Shigella flexneri); test: BLI; conditions: BLI: 25 mM HEPES/NaOH pH 7.5, 150 mM (low stringency) or 500 mM (high stringency) NaCl, 5 mM MgCl2, 1 mM DTT, 10 uM BSA, 0.01% Tween 20, +/-1 mM nucleotide …
# VirB [4] = target: T2, VirB; test: BLI; 150 mM NaCl, without and with CTP; BLI: 25 mM HEPES/NaOH pH 7.5, 150 mM (low stringency) or 500 mM (high stringency) NaCl, 5 mM MgCl2, 1 mM DTT, 10 uM BSA, 0.01% Tween 20, +/-1 mM nucleotide; temperature not stated; conditions: protein: recombinant; tags: none (His6-SUMO removed by Ulp1); chain copies: 2; label: 5' biotin-TEG on strand 1; blunt; one end open
# [5] = target: the molecule itself; test: mass photometry; ~100 nM protein in high-stringency buffer (25 mM HEPES/NaOH pH 7.5, 5 mM MgCl2, 500 mM NaCl, 1 mM DTT), without or with 1 mM CTP; oligomeric state in solution
# [6] = target: the molecule itself; test: cross-linking; 10 µM protein, room temperature, 25 mM HEPES/NaOH pH 7.5, 500 mM NaCl, 5 mM MgCl2, 0.1 mM EDTA; alone, with 1 mM CTP and/or 1 µM virS DNA oligonucleotide; 1 mM BMOE for 1 min, SDS-PAGE; homodimerization of the two N-terminal NBDs within the VirB dimer (clamp closure)
molecule,measurement,setting,value
Nc1ccn([C@@H]2O[C@H](COP(=O)(O)OP(=O)(O)O)[C@@H](O)[C@H]2O)c(=O)n1 [CDP],Kd,VirB [1],~91 µM
Nc1ccn([C@@H]2O[C@H](COP(=O)(O)OP(=O)(O)OP(=O)(O)O)[C@@H](O)[C@H]2O)c(=O)n1 [CTP],Kd,VirB [2],11 µM
Nc1ccn([C@@H]2O[C@H](COP(=O)(O)OP(=O)(O)OP(O)(O)=S)[C@@H](O)[C@H]2O)c(=O)n1 [CTPγS],Kd,VirB [3],~12 µM
AATATATTCAATTAATAAATTTAGAAACTTGAGCCTGTTAACATAATCAAATTTTCTTTTGCTGTACATAATATGTACCTCGTGAGCATATGTAGTGCTCGTTTCATCATGAAATCCCACAAGATAAAGTGCCTGATGTATCAGGCTCGGAGTGTTATAGAAAAAGAGAGAACCCTGTTGAATAAGTATCTTTTTTGTTGTAAAACGAGGTACAA (double strand) [closed virS DNA (215 bp)],Kd,VirB (Shigella flexneri),2.3 µM
NdeI-opened virS DNA (from 215 bp),binding signal (fraction of maximum signal on closed DNA),VirB (Shigella flexneri),0.25
B1,binding result,VirB [4],binds
B2,stoichiometry N,[5],2
B3,binding result,[6],binds
